Experimental data: patent US10294487B2, “Methods and compositions involving ALS variants with native substrate preference” (E I DU PONT DE NEMOURS AND COMPANY, priority 2012, dated 2019)
Residue numbers refer to the chain shown, from its start. Numbers in names are those of the source.

B1: UBQ10: GM-ALS_P178S_D357E: UBQ10 promoter driving ALS variant SEQ ID NO 17 in transgenic soybean (protein)
chain: MAATASRTTRFSSSSSHPTFPKRITRSTLPLSHQTLTKPNHALKIKCSISKPPTAAPFTKEAPTTEPFVSRFASGEPRKGADILVEALERQGVTTVFAYPGGASMEIHQALTRSAAIRNVLPRHEQGGVFAAEGYARSSGLPGVCIATSGPGATNLVSGLADALMDSVPVVAITGQVSRRMIGTDAFQETPIVEVSRSITKHNYLILDVDDIPRVVAEAFFVATSGRPGPVLIDIPKDVQQQLAVPNWDEPVNLPGYLARLPRPPAEAQLEHIVRLIMEAQKPVLYVGGGSLNSSAELRRFVELTGIPVASTLMGLGTFPIGDEYSLQMLGMHGTVYANYAVDNSDLLLAFGVRFDERVTGKLEAFASRAKIVHIDIDSAEIGKNKQAHVSVCADLKLALKGINMILEEKGVEGKFDLGGWREEINVQKHKFPLGYKTFQDAISPQHAIEVLDELTNGDAIVSTGVGQHQMWAAQFYKYKRPRQWLTSGGLGAMGFGLPAAIGAAVANPGAVVVDIDGDGSFIMNVQELATIRVENLPVKILLLNNQHLGMVVQWEDRFYKSNRAHTYLGDPSSESEIFPNMLKFADACGIPAARVTKKEELRAAIQRMLDTPGPYLLDVIVPHQEHVLPMIPSNGSFKDVITEGDGRTRY
B2: SAMS: GM-ALS_P178S_D357E: SAMS promoter driving ALS variant SEQ ID NO 17 in transgenic soybean (protein)
chain: B1 chain
B3: UBQ10: GM-ALS_W555L: UBQ10 promoter driving ALS variant SEQ ID NO 26 in transgenic soybean (protein)
chain: B1 chain with S178P, E357D, W555L
B4: SAMS: GM-ALS W555L: SAMS promoter driving ALS variant SEQ ID NO 26 in transgenic soybean (protein)
chain: B1 chain with S178P, E357D, W555L
B5: SAMS: GM-ALS_A103T_P178S_D357E: SAMS promoter driving ALS variant SEQ ID NO 8 in transgenic soybean (protein)
chain: B1 chain with A103T
B6: SAMS: GM-ALS_P178A: SAMS promoter driving ALS variant SEQ ID NO 9 in transgenic soybean (protein)
chain: B1 chain with S178A, E357D
B7: UBQ10: GM-ALS_A103T_P178S_D357E: UBQ10 promoter driving ALS variant SEQ ID NO 8 in transgenic soybean (protein)
chain: B1 chain with A103T
B8: SAMS: GM-ALS_P178A_W555L: SAMS promoter driving HRA ALS variant SEQ ID NO 10 in transgenic soybean (protein)
chain: B1 chain with S178A, E357D, W555L
B9: UBQ10: GM-ALS_A103T_P178S: UBQ10 promoter driving ALS variant SEQ ID NO 7 in transgenic soybean (protein)
chain: B1 chain with A103T, E357D
B10: SAMS: GM-ALS_A103T_P178S: SAMS promoter driving ALS variant SEQ ID NO 7 in transgenic soybean (protein)
chain: B1 chain with A103T, E357D
B11: G116S: Site-directed mutation in Saccharomyces cerevisiae ALS; position G121 A. thal., 102 G. max (protein, UniProt P07342 91-687, looked up, variant G116S)
Acetolactate synthase …: GLTGGQIFNEMMSRQNVDTVFGYPGSAILPVYDAIHNSDKFNFVLPKHEQGAGHMAEGYARASGKPGVVLVTSGPGATNVVTPMADAFADGIPMVVFTGQVPTSAIGTDAFQEADVVGISRSCTKWNVMVKSVEELPLRINEAFEIATSGRPGPVLVDLPKDVTAAILRNPIPTKTTLPSNALNQLTSRAQDEFVMQSINKAADLINLAKKPVLYVGAGILNHADGPRLLKELSDRAQIPVTTTLQGLGSFDQEDPKSLDMLGMHGCATANLAVQNADLIIAVGARFDDRVTGNISKFAPEARRAAAEGRGGIIHFEVSPKNINKVVQTQIAVEGDATTNLGKMMSKIFPVKERSEWFAQINKWKKEYPYAYMEETPGSKIKPQTVIKKLSKVANDTGRHVIVTTGVGQHQMWAAQHWTWRNPHTFITSGGLGTMGYGLPAAIGAQVAKPESLVIDIDGDASFNMTLTELSSAVQAGTPVKILILNNEEQGMVTQWQSLFYEHRYSHTHQLNPDFIKLAEAMGLKGLRVKKQEELDAKLKEFVSTKGPVLLEVEVDKKVPVLPMVAGGSGLDEFINFDPEVERQQTELRHKRTGGKH

Key:
soybean plants [1] = experiment: Chlorsulfuron spray test of transgenic T1 soybean plants; type: in vivo; conditions: chlorsulfuron 3 g ai/ha foliar; homozygous T1 plants; 8 days after treatment; 0=no effect, 100=dead plant
Procedure: T1 plants, each having an ALS variant transgene, were grown to the V1 to V2 growth stage and then sprayed with commercial chlorsulfuron formulation at a rate of 3 g ai/ha. All chlorsulfuron treatments were applied foliarly with 0.25% nonionic surfactant in a spray volume of 374 L/ha. Individual plants were compared to untreated plants of similar genetic background, evaluated for herbicide response at eight days after treatment and assigned a visual response score from 0 to 100% injury (0=no effect to 100=dead plant at day 8).
Results in Table 8 list the lowest injury among plants of a single event for constructs containing the listed expression cassette. The amino acid substituted ALS variants provided more protection than the overexpression of the native ALS gene. Seed was produced from a number of T1 plants and advanced to more extensive herbicide testing in the T2 generation.

soybean plants [2] = experiment: Spray test of homozygous transgenic soybean plants with five ALS-inhibitor herbicides; type: in vivo; conditions: homozygous T1 or T2 plants; for Lowest % injury Chlorimuron: chlorimuron 32 g ai/ha foliar; for Lowest % injury Imazapyr: imazapyr 4 g ai/ha foliar; for Lowest % injury Rimsulfuron: rimsulfuron 8 g ai/ha foliar; for Lowest % injury Thifensulfuron-methyl: thifensulfuron-methyl 16 g ai/ha foliar; for Lowest % injury Tribenuron-methyl: tribenuron-methyl 16 g ai/ha foliar
Procedure: T1 or T2 soybean plants were evaluated with qPCR to confirm they were homozygous for the transgene. Plants were sprayed at the V1 to V2 growth stage with the commercial formulations of chlorimuron (32 g ai/ha), tribenuron-methyl (16 g ai/ha), thifensulfuron-methyl (16 g ai/ha), rimsulfuron (8 g ai/ha), and imazapyr (4 g ai/ha). Each herbicide was applied foliarly with nonionic surfactant in a spray volume of 374 L/ha. The herbicide response for individual plants was determined by comparing to untreated plants of similar genetic background. Visual injury was scored on a scale of 0 to 100% injury (0=no effect to 100=dead plant). The lowest response for four treated plants of a single event from each construct with the listed expression cassette is reported.

soybean plants [3] = experiment: Field spray test of homozygous T3 soybean plants with Affinity Broadspec; type: in vivo; conditions: Affinity Broadspec (thifensulfuron + tribenuron) 1 oz product per acre
Procedure: Homozygous T3 soybean plants with and without ALS variant transgenes were grown in a field study and sprayed at the V2 to V4 growth stage with a commercial formulation of Affinity Broadspec at 1 oz product per acre (2× typical field rate). Affinity Broadspec contains 25% thifensulfuron and 25% tribenuron by volume. The herbicide was applied foliarly with nonionic surfactant. The herbicide response for individual events was determined by comparing to untreated plants of similar genetic background. Visual injury is on a scale of 0 to 100% injury (0=no effect to 100=dead plant). The substituted ALS variants gave substantially more protection to ALS-inhibitors than overexpression of the native ALS gene.

ALS [4] = conditions: cited from earlier work
ALS [5] = conditions: pyruvate reaction; cited from earlier work

Molecule | Lowest % injury (soybean plants [1]) | Lowest % injury Chlorimuron (soybean plants [2]) | Lowest % injury Imazapyr (soybean plants [2]) | Lowest % injury Rimsulfuron (soybean plants [2]) | Lowest % injury Thifensulfuron-methyl (soybean plants [2]) | Lowest % injury Tribenuron-methyl (soybean plants [2]) | also measured
B1 | 5% | 20% | 40% | 70% | 20% | 20% | Lowest % injury (soybean plants [3]): 13%
B2 | 45% |  |  |  |  |  | 
B3 | 75% | 5% | 10% | 80% | 5% |  | 
B4 | 80% |  |  |  |  |  | 
B5 | 80% |  |  |  |  |  | 
B6 | 0% | 0% |  | 80% | 25% | 80% | 
B7 | 75% | 5% | 50% | 80% | 0% | 55% | 
B8 | 10% |  |  |  |  | 75% | Lowest % injury (soybean plants [3]): 5%
B9 | 40% | 35% | 45% | 80% | 35% | 65% | Lowest % injury (soybean plants [3]): 57%
B10 | 80% |  |  |  |  |  | 
B11 |  |  |  |  |  |  | Resistance pattern, I50 fold increase: IM (ALS [4]; imidazolinone(s)): IMs 15-300 fold; Resistance pattern, I50 fold increase: SU (ALS [4]; sulfonylurea(s)): SUs, 1000-10000 fold; Kinetic parameters: Km (ALS [5]): Km, 20 % wt; Kinetic parameters: kcat (ALS [5]): kcat, 75 % wt
